Patent publication US20150266963A1 (ARGEN X B V, published 2015)

T1: CD27 (UniProt P26842 21-192, limits assumed)
T1 sequence (looked up): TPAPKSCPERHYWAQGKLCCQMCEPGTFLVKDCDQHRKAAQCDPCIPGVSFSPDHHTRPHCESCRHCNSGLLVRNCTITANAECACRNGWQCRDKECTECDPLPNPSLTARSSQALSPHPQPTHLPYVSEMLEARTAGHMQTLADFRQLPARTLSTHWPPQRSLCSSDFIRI

T2: human-mouse CD70 chimera chim-2.2 (Flag-TNC-CD70)
T2 construct: also called chimera 2.2; not shown: N-terminal Flag tag, TNC trimerisation domain and any linkers of the Flag-TNC-CD70 construct
T2 chain: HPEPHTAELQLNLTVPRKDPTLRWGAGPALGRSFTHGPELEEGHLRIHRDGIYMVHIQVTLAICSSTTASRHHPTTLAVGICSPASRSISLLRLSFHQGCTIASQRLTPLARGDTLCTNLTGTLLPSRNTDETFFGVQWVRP

T3: human-mouse CD70 chimera chim-2.4 (Flag-TNC-CD70)
T3 construct: also called chimera 2.4
T3 chain: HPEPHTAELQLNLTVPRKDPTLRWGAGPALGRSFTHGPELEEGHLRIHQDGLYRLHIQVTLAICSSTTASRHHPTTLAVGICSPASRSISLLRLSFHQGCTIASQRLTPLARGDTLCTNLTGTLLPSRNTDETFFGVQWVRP

T4: human-mouse CD70 chimera chim-2 (Flag-TNC-CD70)
T4 construct: also called chimera 2
T4 chain: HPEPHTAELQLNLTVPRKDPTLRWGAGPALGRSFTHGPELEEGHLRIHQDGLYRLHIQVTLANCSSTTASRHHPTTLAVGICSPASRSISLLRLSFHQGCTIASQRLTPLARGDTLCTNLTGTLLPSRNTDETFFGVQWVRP

T5: human-mouse CD70 chimera chim-3 (Flag-TNC-CD70)
T5 construct: also called chimera 3
T5 chain: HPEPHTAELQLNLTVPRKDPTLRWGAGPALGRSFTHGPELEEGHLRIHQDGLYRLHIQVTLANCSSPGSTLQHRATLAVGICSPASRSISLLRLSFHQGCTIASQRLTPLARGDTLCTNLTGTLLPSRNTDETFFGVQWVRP

T6: human-mouse CD70 chimera chim-4 (Flag-TNC-CD70) (Mus musculus (Mouse), UniProt O55237 54-192)
T6 construct: also called chimera 4
T6 chain: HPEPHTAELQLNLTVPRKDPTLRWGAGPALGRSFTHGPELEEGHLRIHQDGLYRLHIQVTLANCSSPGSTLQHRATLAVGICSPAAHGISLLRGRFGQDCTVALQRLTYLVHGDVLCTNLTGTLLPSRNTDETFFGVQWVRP

T7: human-mouse CD70 chimera chim-1 (Flag-TNC-CD70) (Homo sapiens (Human), UniProt P32970 58-193, Soluble homotrimer held by the TNC domain; one CD70 ECD chain is given.)
T7 construct: also called chimera 1; not shown: N-terminal Flag tag, TNC (tenascin-C) trimerisation domain and any linkers of the Flag-TNC-CD70 construct
T7 chain: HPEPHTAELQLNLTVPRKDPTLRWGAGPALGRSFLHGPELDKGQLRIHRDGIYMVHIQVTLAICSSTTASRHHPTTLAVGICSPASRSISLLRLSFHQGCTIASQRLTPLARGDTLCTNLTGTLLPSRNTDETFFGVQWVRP

T8: human-mouse CD70 chimera chim-2.1 (Flag-TNC-CD70) (Soluble homotrimer held by the TNC domain; one CD70 ECD chain is given.)
T8 construct: also called chimera 2.1; not shown: N-terminal Flag tag, TNC (tenascin-C) trimerisation domain and any linkers of the Flag-TNC-CD70 construct
T8 chain: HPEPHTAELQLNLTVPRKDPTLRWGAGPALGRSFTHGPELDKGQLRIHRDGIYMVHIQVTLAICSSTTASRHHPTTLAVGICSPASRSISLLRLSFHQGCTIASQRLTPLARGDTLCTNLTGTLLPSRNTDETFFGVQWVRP

T9: mouse Flag-TNC-CD70 (mouse, UniProt O55237 45-195)
T9 construct: extracellular domain; also called mouse CD70; not shown: Flag tag and TNC trimerisation domain
T9 sequence (looked up): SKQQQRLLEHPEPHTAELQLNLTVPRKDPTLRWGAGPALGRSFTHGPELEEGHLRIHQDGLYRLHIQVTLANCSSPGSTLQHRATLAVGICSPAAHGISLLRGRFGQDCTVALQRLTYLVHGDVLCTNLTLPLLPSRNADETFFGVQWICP

B1: recombinant human CD70 (Flag-TNC-CD70) (ligand, UniProt P32970 39-193, looked up)
chain: QRFAQAQQQLPLESLGWDVAELQLNHTGPQQDPRLYWQGGPALGRSFLHGPELDKGQLRIHRDGIYMVHIQVTLAICSSTTASRHHPTTLAVGICSPASRSISLLRLSFHQGCTIASQRLTPLARGDTLCTNLTGTLLPSRNTDETFFGVQWVRP
notes: extracellular domain; Captured by anti-Flag mAb in ELISA; as 'recombinant human CD70' immobilised on Biacore CM5 chips; TNC is for trimerisation; also called recombinant CD70; human recombinant CD70; not shown: Flag tag and TNC trimerisation domain
B2: recombinant human CD27 Fc chimera (CD27-Fc) (Fc fusion, UniProt P26842 21-192, looked up)
chain: TPAPKSCPERHYWAQGKLCCQMCEPGTFLVKDCDQHRKAAQCDPCIPGVSFSPDHHTRPHCESCRHCNSGLLVRNCTITANAECACRNGWQCRDKECTECDPLPNPSLTARSSQALSPHPQPTHLPYVSEMLEARTAGHMQTLADFRQLPARTLSTHWPPQRSLCSSDFIRI
notes: Bought reagent; also called recombinant CD27-Fc; Fc part of the bought chimera not given

Experiments:
[1] = target: B2; test: Biacore off-rate analysis, CD27 passed over coated CD70
Description: (§1) Off-rates of the purified llama-derived anti-CD70 blocking Fabs were determined using the Biacore. Recombinant human CD70 was immobilized on a CM5 Biacore chip. The immobilization was performed in accordance with a method provided by Biacore and by using the NHS/EDC kit (Biacore AB): after activation of the chip, a solution of 50 μg/ml of recombinant CD70 in 10 mM acetate buffer with pH of 5 was prepared and 1 μl of this solution (50ng) was injected resulting in a surface density of approximately 1000 RU.
(§2) Fabs for the CD70 mAbs ARGX-110, MDX2H5 and SGN70 were prepared by […] digestion (SGN70 and MDX69A7 are described elsewhere herein, MDX2H5, also referred to as MDX1411, is described in WO2008/074004 FIGS. 1A and 1B). Fabs, at a concentration of approximately 100-400 μg/ml, were diluted 6-fold in hepes-buffered saline (0.1M Hepes, 1.5M NaCl, 30 mM EDTA, 0.5% v/v surfactant P20). They were injected (30 μl) and passed through the flow cells at a flow rate of 30 μl/min. After binding of the Fab to CD70, the off-rate was monitored for a period of 10 minutes. After the dissociation, the flow cell surfaces were regenerated by injecting 5 μl of 10 mM NaOH. Sometimes multiple injections of NaOH were needed to regenerate the surfaces depending on the affinity of the Fabs. […] Moreover, the off-rate of CD27 for CD70 was determined as well.

[2] = target: T1, CD27; test: Biacore; recombinant human CD70 on CM5 chip; CD27 injected
Description: as §1, §2

[3] = target: T2, human-mouse CD70 chimera chim-2.2 …; test: ELISA; chimera captured by anti-Flag mAb; anti-human-Fc-HRP
Description: (§3) A Maxisorb (Nunc) microtiter plate was coated with 3.5 μg/ml mouse M2 anti-Flag mAb (Sigma Aldrich, F3165) and the different chimeras were captured. A dilution series of the CD70 mAbs to be tested was applied starting at a concentration of 10 μg/ml and making 3-fold dilutions. After 2 hours, binding was detected using anti-human-Fc-HRP at a 16000-fold dilution. Staining was done with ABTS and OD at 405 nm was measured. As a positive control, CD27-Fc was applied which is able to bind to both human and mouse CD70 with good affinity as well as to the chimeric human-mouse CD70 variants.

[4] = target: T3, human-mouse CD70 chimera chim-2.4 …; test: as above
Description: as §3

[5] = target: T4, human-mouse CD70 chimera chim-2 …; test: as above
Description: as §3

[6] = target: T5, human-mouse CD70 chimera chim-3 …; test: as above
Description: as §3

[7] = target: T6, human-mouse CD70 chimera chim-4 …; test: as above
Description: as §3

[8] = target: T7, human-mouse CD70 chimera chim-1 …; test: as above
Description: as §3

[9] = target: T8, human-mouse CD70 chimera chim-2.1 …; test: as above
Description: as §3

[10] = target: B1; test: ELISA; Flag-TNC-CD70 captured by anti-Flag mAb; anti-human-Fc-HRP
Description: as §3

[11] = target: T9, mouse Flag-TNC-CD70; test: ELISA; mouse Flag-TNC-CD70 captured by anti-Flag mAb; anti-human-Fc-HRP
Description: as §3

Binder | koff [1] [s⁻¹] | koff [2] [s⁻¹] | EC50 [3] [µg/mL] | EC50 [4] [µg/mL] | EC50 [5] [µg/mL] | EC50 [6] [µg/mL] | EC50 [7] [µg/mL] | EC50 [8] [µg/mL] | EC50 [9] [µg/mL] | EC50 [10] [µg/mL] | EC50 [11] [µg/mL]
B1 | 8e-05 | 8e-05 | – | – | – | – | – | – | – | – | –
B2 | – | – | 0.056 | 0.076 | 0.099 | 0.094 | 0.051 | 0.159 | 0.051 | 0.079 | 0.041
